Assay results taken from patent publication US12679878B2, “CRF2 receptor agonists and their use in therapy” (SANOFI, priority 2020, dated 2026).
Starred links: 1 amine or outer side, 2 acyl side, 3 side chain; linkers in the order of their positions; H or OH if unused. Non-standard residues stand in square brackets, D forms with d. Groups on a side chain read outwards from the residue. No end group written: not given here. *: point of attachment. C16 diacid = O=C(O)CCCCCCCCCCCCCCC(=O)*; γGlu = O=C(O)[C@H](CCC(=O)[*:2])N[*:1]; AEEA = NCCOCCOCC(=O)O; Aib = CC(C)(N)C(=O)O

T1: CRF1R receptor (anti-target) (UniProt P34998 24-415, limits assumed)
T1 sequence (looked up): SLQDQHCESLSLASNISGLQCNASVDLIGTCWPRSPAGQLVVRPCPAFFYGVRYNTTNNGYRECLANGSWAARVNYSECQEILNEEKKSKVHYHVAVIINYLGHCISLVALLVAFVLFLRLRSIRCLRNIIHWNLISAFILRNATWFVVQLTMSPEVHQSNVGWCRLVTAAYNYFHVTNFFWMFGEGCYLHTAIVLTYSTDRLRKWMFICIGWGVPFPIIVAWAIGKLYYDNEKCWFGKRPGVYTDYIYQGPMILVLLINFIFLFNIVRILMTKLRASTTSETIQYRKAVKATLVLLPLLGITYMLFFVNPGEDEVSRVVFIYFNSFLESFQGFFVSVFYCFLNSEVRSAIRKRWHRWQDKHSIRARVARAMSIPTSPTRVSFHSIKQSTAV


Key:
[1] = target: T1, CRF1R receptor (anti-target); experiment: cell-based or functional assay
[2] = target: human corticotropin-releasing factor 2α (CRF2α receptor) (human), Q13324; experiment: cell-based or functional assay
Sequence of human corticotropin-releasing factor 2α (CRF2α receptor) (human), Q13324 (Q13324 20-411): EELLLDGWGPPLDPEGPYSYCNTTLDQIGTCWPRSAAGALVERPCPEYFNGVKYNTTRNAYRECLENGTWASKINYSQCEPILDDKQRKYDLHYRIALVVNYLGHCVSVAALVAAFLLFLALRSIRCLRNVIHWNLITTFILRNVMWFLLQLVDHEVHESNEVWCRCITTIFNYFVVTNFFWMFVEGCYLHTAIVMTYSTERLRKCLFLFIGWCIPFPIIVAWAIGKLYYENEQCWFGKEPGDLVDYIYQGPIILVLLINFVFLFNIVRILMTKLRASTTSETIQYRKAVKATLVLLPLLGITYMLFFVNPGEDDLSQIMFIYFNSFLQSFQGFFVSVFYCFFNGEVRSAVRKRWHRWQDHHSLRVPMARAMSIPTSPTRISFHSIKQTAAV

Row | Binder | EC50 [nM] 0% HSA (cAMP, HTRF) [1] [nM] | Emax (%) (100% = Sauvagine at 100 nM) [1] | EC50 [nM], 0% HSA (cAMP, HTRF) [2] [nM]
1 | IVLSLD[dV]PIKLK([AEEA-AEEA-γGlu-γGlu-C16 diacid])QILLKQERQK[Aib]QREQAEKNKQILAQV-NH2 (N-terminus assumed; SMILES CC[C@H](C)[C@H](N)C(=O)N[C@H](C(=O)N[C@@H](CC(C)C)C(=O)N[C@@H](CO)C(=O)N[C@@H](CC(C)C)C(=O)N[C@@H](CC(=O)O)C(=O)N[C@@H](C(=O)N1CCC[C@H]1C(=O)N[C@H](C(=O)N[C@@H](CCCCN)C(=O)N[C@@H](CC(C)C)C(=O)N[C@@H](CCCCNC(=O)COCCOCCNC(=O)COCCOCCNC(=O)CC[C@H](NC(=O)CC[C@H](NC(=O)CCCCCCCCCCCCCCC(=O)O)C(=O)O)C(=O)O)C(=O)N[C@@H](CCC(N)=O)C(=O)N[C@H](C(=O)N[C@@H](CC(C)C)C(=O)N[C@@H](CC(C)C)C(=O)N[C@@H](CCCCN)C(=O)N[C@@H](CCC(N)=O)C(=O)N[C@@H](CCC(=O)O)C(=O)N[C@@H](CCCNC(=N)N)C(=O)N[C@@H](CCC(N)=O)C(=O)N[C@@H](CCCCN)C(=O)NC(C)(C)C(=O)N[C@@H](CCC(N)=O)C(=O)N[C@@H](CCCNC(=N)N)C(=O)N[C@@H](CCC(=O)O)C(=O)N[C@@H](CCC(N)=O)C(=O)N[C@@H](C)C(=O)N[C@@H](CCC(=O)O)C(=O)N[C@@H](CCCCN)C(=O)N[C@@H](CC(N)=O)C(=O)N[C@@H](CCCCN)C(=O)N[C@@H](CCC(N)=O)C(=O)N[C@H](C(=O)N[C@@H](CC(C)C)C(=O)N[C@@H](C)C(=O)N[C@@H](CCC(N)=O)C(=O)N[C@H](C(N)=O)C(C)C)[C@@H](C)CC)[C@@H](C)CC)[C@@H](C)CC)C(C)C)C(C)C) [peptide of SEQ ID NO: 199] | > 100 | -2.9 | 1.39
2 | IVLSLD[dV]PIGLK([γGlu-C16 diacid])QILLKQERQKK[Aib]REQAETNKQILAQV-NH2 (N-terminus assumed; SMILES CC[C@H](C)[C@H](N)C(=O)N[C@H](C(=O)N[C@@H](CC(C)C)C(=O)N[C@@H](CO)C(=O)N[C@@H](CC(C)C)C(=O)N[C@@H](CC(=O)O)C(=O)N[C@@H](C(=O)N1CCC[C@H]1C(=O)N[C@H](C(=O)NCC(=O)N[C@@H](CC(C)C)C(=O)N[C@@H](CCCCNC(=O)CC[C@H](NC(=O)CCCCCCCCCCCCCCC(=O)O)C(=O)O)C(=O)N[C@@H](CCC(N)=O)C(=O)N[C@H](C(=O)N[C@@H](CC(C)C)C(=O)N[C@@H](CC(C)C)C(=O)N[C@@H](CCCCN)C(=O)N[C@@H](CCC(N)=O)C(=O)N[C@@H](CCC(=O)O)C(=O)N[C@@H](CCCNC(=N)N)C(=O)N[C@@H](CCC(N)=O)C(=O)N[C@@H](CCCCN)C(=O)N[C@@H](CCCCN)C(=O)NC(C)(C)C(=O)N[C@@H](CCCNC(=N)N)C(=O)N[C@@H](CCC(=O)O)C(=O)N[C@@H](CCC(N)=O)C(=O)N[C@@H](C)C(=O)N[C@@H](CCC(=O)O)C(=O)N[C@H](C(=O)N[C@@H](CC(N)=O)C(=O)N[C@@H](CCCCN)C(=O)N[C@@H](CCC(N)=O)C(=O)N[C@H](C(=O)N[C@@H](CC(C)C)C(=O)N[C@@H](C)C(=O)N[C@@H](CCC(N)=O)C(=O)N[C@H](C(N)=O)C(C)C)[C@@H](C)CC)[C@@H](C)O)[C@@H](C)CC)[C@@H](C)CC)C(C)C)C(C)C) [peptide of SEQ ID NO: 194] | > 100 | 21.6 | 0.11
3 | IVLSLD[dV]PIKLK([AEEA-AEEA-γGlu-γGlu-C16 diacid])QILLKQERQKK[Aib]RQKAEKNKQILAQV-NH2 (N-terminus assumed; SMILES CC[C@H](C)[C@H](N)C(=O)N[C@H](C(=O)N[C@@H](CC(C)C)C(=O)N[C@@H](CO)C(=O)N[C@@H](CC(C)C)C(=O)N[C@@H](CC(=O)O)C(=O)N[C@@H](C(=O)N1CCC[C@H]1C(=O)N[C@H](C(=O)N[C@@H](CCCCN)C(=O)N[C@@H](CC(C)C)C(=O)N[C@@H](CCCCNC(=O)COCCOCCNC(=O)COCCOCCNC(=O)CC[C@H](NC(=O)CC[C@H](NC(=O)CCCCCCCCCCCCCCC(=O)O)C(=O)O)C(=O)O)C(=O)N[C@@H](CCC(N)=O)C(=O)N[C@H](C(=O)N[C@@H](CC(C)C)C(=O)N[C@@H](CC(C)C)C(=O)N[C@@H](CCCCN)C(=O)N[C@@H](CCC(N)=O)C(=O)N[C@@H](CCC(=O)O)C(=O)N[C@@H](CCCNC(=N)N)C(=O)N[C@@H](CCC(N)=O)C(=O)N[C@@H](CCCCN)C(=O)N[C@@H](CCCCN)C(=O)NC(C)(C)C(=O)N[C@@H](CCCNC(=N)N)C(=O)N[C@@H](CCC(N)=O)C(=O)N[C@@H](CCCCN)C(=O)N[C@@H](C)C(=O)N[C@@H](CCC(=O)O)C(=O)N[C@@H](CCCCN)C(=O)N[C@@H](CC(N)=O)C(=O)N[C@@H](CCCCN)C(=O)N[C@@H](CCC(N)=O)C(=O)N[C@H](C(=O)N[C@@H](CC(C)C)C(=O)N[C@@H](C)C(=O)N[C@@H](CCC(N)=O)C(=O)N[C@H](C(N)=O)C(C)C)[C@@H](C)CC)[C@@H](C)CC)[C@@H](C)CC)C(C)C)C(C)C) [peptide of SEQ ID NO: 201] | > 100 | -2.8 | 4.66

The remaining lines, values ahead:

Row | EC50 [nM] 0% HSA (cAMP, HTRF) [1] [nM] | Emax (%) (100% = Sauvagine at 100 nM) [1] | EC50 [nM], 0% HSA (cAMP, HTRF) [2] [nM] | Binder
4 | > 100 | 1.4 | 0.49 | IVLSLD[dV]PIKLK([AEEA-AEEA-γGlu-C16 diacid])QILLKQERQK[Aib]QREQAEKNKQILAQV-NH2 (N-terminus assumed; SMILES CC[C@H](C)[C@H](N)C(=O)N[C@H](C(=O)N[C@@H](CC(C)C)C(=O)N[C@@H](CO)C(=O)N[C@@H](CC(C)C)C(=O)N[C@@H](CC(=O)O)C(=O)N[C@@H](C(=O)N1CCC[C@H]1C(=O)N[C@H](C(=O)N[C@@H](CCCCN)C(=O)N[C@@H](CC(C)C)C(=O)N[C@@H](CCCCNC(=O)COCCOCCNC(=O)COCCOCCNC(=O)CC[C@H](NC(=O)CCCCCCCCCCCCCCC(=O)O)C(=O)O)C(=O)N[C@@H](CCC(N)=O)C(=O)N[C@H](C(=O)N[C@@H](CC(C)C)C(=O)N[C@@H](CC(C)C)C(=O)N[C@@H](CCCCN)C(=O)N[C@@H](CCC(N)=O)C(=O)N[C@@H](CCC(=O)O)C(=O)N[C@@H](CCCNC(=N)N)C(=O)N[C@@H](CCC(N)=O)C(=O)N[C@@H](CCCCN)C(=O)NC(C)(C)C(=O)N[C@@H](CCC(N)=O)C(=O)N[C@@H](CCCNC(=N)N)C(=O)N[C@@H](CCC(=O)O)C(=O)N[C@@H](CCC(N)=O)C(=O)N[C@@H](C)C(=O)N[C@@H](CCC(=O)O)C(=O)N[C@@H](CCCCN)C(=O)N[C@@H](CC(N)=O)C(=O)N[C@@H](CCCCN)C(=O)N[C@@H](CCC(N)=O)C(=O)N[C@H](C(=O)N[C@@H](CC(C)C)C(=O)N[C@@H](C)C(=O)N[C@@H](CCC(N)=O)C(=O)N[C@H](C(N)=O)C(C)C)[C@@H](C)CC)[C@@H](C)CC)[C@@H](C)CC)C(C)C)C(C)C) [peptide of SEQ ID NO: 198]
5 | > 100 | 1.9 | 8.7 | IVLSLD[dV]PIKLK([AEEA-AEEA-γGlu-C16 diacid])QILLKQERQKK[Aib]RQKAEKNKQILAQV-NH2 (N-terminus assumed; SMILES CC[C@H](C)[C@H](N)C(=O)N[C@H](C(=O)N[C@@H](CC(C)C)C(=O)N[C@@H](CO)C(=O)N[C@@H](CC(C)C)C(=O)N[C@@H](CC(=O)O)C(=O)N[C@@H](C(=O)N1CCC[C@H]1C(=O)N[C@H](C(=O)N[C@@H](CCCCN)C(=O)N[C@@H](CC(C)C)C(=O)N[C@@H](CCCCNC(=O)COCCOCCNC(=O)COCCOCCNC(=O)CC[C@H](NC(=O)CCCCCCCCCCCCCCC(=O)O)C(=O)O)C(=O)N[C@@H](CCC(N)=O)C(=O)N[C@H](C(=O)N[C@@H](CC(C)C)C(=O)N[C@@H](CC(C)C)C(=O)N[C@@H](CCCCN)C(=O)N[C@@H](CCC(N)=O)C(=O)N[C@@H](CCC(=O)O)C(=O)N[C@@H](CCCNC(=N)N)C(=O)N[C@@H](CCC(N)=O)C(=O)N[C@@H](CCCCN)C(=O)N[C@@H](CCCCN)C(=O)NC(C)(C)C(=O)N[C@@H](CCCNC(=N)N)C(=O)N[C@@H](CCC(N)=O)C(=O)N[C@@H](CCCCN)C(=O)N[C@@H](C)C(=O)N[C@@H](CCC(=O)O)C(=O)N[C@@H](CCCCN)C(=O)N[C@@H](CC(N)=O)C(=O)N[C@@H](CCCCN)C(=O)N[C@@H](CCC(N)=O)C(=O)N[C@H](C(=O)N[C@@H](CC(C)C)C(=O)N[C@@H](C)C(=O)N[C@@H](CCC(N)=O)C(=O)N[C@H](C(N)=O)C(C)C)[C@@H](C)CC)[C@@H](C)CC)[C@@H](C)CC)C(C)C)C(C)C) [peptide of SEQ ID NO: 200]
